According to patent publication US20230279152A1 (published 2023):
Numbering of substitutions follows the chain as printed.

B1: 32G4 mouse chimeric antibody (murine VH/VL on human IgG1 constant regions) (antibody, V domains shown)
VH: EVQLQQSGPELENPGASVKIFCKASGYSSTGYNINWVKQSSGKSLEWIGNINPYYGGITYNQKFKGKATLTVDKSSSTAYVQLKSLTSEDSAVYYCARDYYGNSFAYWGQGTLVTVST
VL: DIVMTQSPSSLTVTAGEKVTMSCKSSQSLLNSGNQKNYLTWYQQNPGQPPKLLIFWASTRESGVPDRFTGSGSGTDFTLTISSVQAEDLAVYYCQNNYYFPYTFGGGTKLEIR
notes: also called murine clone 32G4; mouse 32G4 chimeric control antibody
B2: 15B10 mouse chimeric antibody (murine VH/VL on human IgG1 constant regions) (antibody, V domains shown)
VH: QVQLQQSGAELVRPGTSVKVSCKASGYAFSNYLIDWVKQRPGQGLEWIGVIHPGSGTNYNENFKGKATLTADKSSSTAYMQLSSLTSDDSAVYFCSRRWYGNSLIYWGQGTLVTVSA
VL: B1 VL with S22T, K36R, N45K, F55Y, N97D, Y99F, F100Y, Y102F, G106S, R113K
notes: also called murine clone 15B10
B3: 47D10 mouse chimeric antibody (murine VH/VL on human IgG1 constant regions) (antibody, V domains shown)
VH: QVMLVESGGGLVKPGGSLKLSCAASGFAFSSSAMSWIRQTPEKRLEWVATMTVGYIYTYYLDTVKGRFIISRDNANNTLYLQMSSLRSEDSAMYYCARQGYGNAMDYWGQGTSVTVSS
VL: B1 VL with N45K, F55Y, D66Y, Q85E, Y99I, F100Y, Y102L, G106A, I112L, R113K
notes: also called murine clone 47D10; mouse 47D10 chimeric control antibody
B4: 32G4-huIgG1-V9 (antibody, V domains shown)
VH: EVQLVQSGSELKKPGASVKVSCKASGYSSTGYNINWVRQAPGQGLEWIGNINPYYGGITYNQGFTGRFVLSVDKSSSTAYLQISSLKAEDTAVYYCARDYYGNSFAYWGQGTLVTVSS
VL: DIVMTQSPDSLAVSLGERATINCKSSQSLLNSGNQKNYLTWYQQKPGQPPKLLIFWASTRESGVPDRFSGSGSGTDFTLTISSLQAEDVAVYYCQNNYYFPYTFGQGTKLEIKR
notes: Humanized full IgG1 antibody; also called humanized 32G4 variant V9; 32G4-V9
B5: 29G4 mouse chimeric antibody (murine VH/VL on human IgG1 constant regions) (antibody, V domains shown)
VH: QVQLKESGPGLVAPSQTLSITCTVSGFSLTNYGVQWVRQPPGKGLEWLGVIWAGGNTNYNSALLSRLSISKDTSKSQVFLKMNSLKTDDTAMYYCARGGYGNSCDYWGQGTLVTVSA
VL: DIVMTQSPSSLTVTAGEKVTMNCKSSQSLLNSGNQKNYLAWYRQKPGQPPKLLIYWASTRGSGVPDRFTGSGSGTDFALTISSVQAEDLAVYYCQNDYFYPLTFGAGTKLDLK
notes: also called murine clone 29G4
B6: 31A6 mouse chimeric antibody (murine VH/VL on human IgG1 constant regions) (antibody, V domains shown)
VH: QTYLQQSGAELVRSGASVKMSCKASGYTFASYNIHWVKQTPGQGLEWIGYIYPGKDGSHYNQKFRDKATLTADTSSSTAYMQISSLTSEDSAVYFCARGGYYGNSFDYWGQGTLVTVSA
VL: DIVMSQSPSSLTVTTGEKVTMTCKSSQSLLNSGNLKNYLAWYQQKPGQPPKLLIYWASIRESGVPDRFTGSGSGTDFTLTIISVQAEDLAIYYCQNAYTFPFTLGGGTKLEIK
notes: also called murine clone 31A6
B7: 32G4-huIgG1-V8 (antibody, V domains shown)
VH: QVQLVQSGAEVKKPGASVKVSCKASGYSSTGYNINWVRQAPGQGLEWMGNINPYYGGITYNQKFQGRVTMTVDKSISTAYMELSRLRSDDTVVYYCARDYYGNSFAYWGQGTLVTVSS
VL: DIQMTQSPSSLSASVGDRVTITCRSSQSLLNSGNQKNYLTWYQQKPGKAPKLLIFWASTLESGVPSRFSGSGSGTDFTLTISSLQPEDFATYYCQNNYYFPYTFGQGTKLEIKR
notes: Humanized full IgG1 antibody; also called humanized 32G4 variant V8; 32G4-V8
B8: 47D10-huIgG1-V6 (antibody, V domains shown)
VH: QVQLVESGGGLVKPGGSLRLSCAASGFAFSSSAMSWIRQAPGKGLEWVATMTVGYIYTYYLDSVKGRFTISRDNAKNSLYLQMNSLRAEDTAVYYCARQGYGNAMDYWGQGTLVTVSS
VL: DIVMTQSPLSLPVTPGEPASISCRSSQSLLNSGNQKNYLTWYLQKPGQSPQLLIYWASTRESGVPDRFSGSGSGTDFTLKISRVEAEDVGVYYCQNNYIYPLTFGQGTKLEIKR
notes: Humanized full IgG1 antibody; also called humanized 47D10 variant V6; 47D10-V6
B9: 47D10-huIgG1-V7 (antibody, V domains shown)
VH: B8 VH
VL: DIVMTQSPGTLSLSPGERATLSCRSSQSLLNSGNQKNYLTWYQQKPGQAPRLLIYWASTRESGIPDRFSGSGSGTDFTLTISRLEPEDFAVYYCQNNYIYPLTFGQGTKLEIKR
notes: Humanized full IgG1 antibody; also called humanized 47D10 variant V7; 47D10-V7
B10: 47D10-huIgG1-V6×OKT3 (anti-CLDN18.2×CD3) bispecific antibody (bispecific antibody)
heavy: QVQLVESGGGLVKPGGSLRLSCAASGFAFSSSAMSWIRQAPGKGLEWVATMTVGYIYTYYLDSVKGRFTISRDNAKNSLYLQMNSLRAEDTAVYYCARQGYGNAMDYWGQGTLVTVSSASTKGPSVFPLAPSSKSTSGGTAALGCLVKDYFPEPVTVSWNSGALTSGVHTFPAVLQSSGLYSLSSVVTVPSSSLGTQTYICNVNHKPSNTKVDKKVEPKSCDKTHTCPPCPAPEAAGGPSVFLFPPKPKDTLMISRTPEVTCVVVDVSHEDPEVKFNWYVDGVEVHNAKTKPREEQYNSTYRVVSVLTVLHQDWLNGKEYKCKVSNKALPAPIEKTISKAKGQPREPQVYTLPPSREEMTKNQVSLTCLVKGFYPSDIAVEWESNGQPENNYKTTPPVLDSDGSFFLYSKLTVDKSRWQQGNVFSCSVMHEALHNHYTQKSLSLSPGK
light: DIVMTQSPLSLPVTPGEPASISCRSSQSLLNSGNQKNYLTWYLQKPGQSPQLLIYWASTRESGVPDRFSGSGSGTDFTLKISRVEAEDVGVYYCQNNYIYPLTFGQGTKLEIKRTVAAPSVFIFPPSDEQLKSGTASVVCLLNNFYPREAKVQWKVDNALQSGNSQESVTEQDSKDSTYSLSSTLTLSKADYEKHKVYACEVTHQGLSSPVTKSFNRGECTSGGGGSGGGGSGGGGSQVQLVQSGGGVVQPGRSLRLSCKASGYTFTRYTMHWVRQAPGKGLEWIGYINPSRGYTNYNQKFKDRFTISRDNSKNTAFLQMDSLRPEDTGVYFCARYYDDHYSLDYWGQGTPVTVSSGGGGSGGGGSGGGGSGGGGSGGGGSGGGGSDIQMTQSPSSLSASVGDRVTITCSASSSVSYMNWYQQTPGKAPKRWIYDTSKLASGVPSRFSGSGSGTDYTFTISSLQPEDIATYYCQQWSSNPFTFGQGTKLQIT
B11: 47D10-huIgG1-V7×OKT3 (anti-CLDN18.2×CD3) bispecific antibody (bispecific antibody)
heavy: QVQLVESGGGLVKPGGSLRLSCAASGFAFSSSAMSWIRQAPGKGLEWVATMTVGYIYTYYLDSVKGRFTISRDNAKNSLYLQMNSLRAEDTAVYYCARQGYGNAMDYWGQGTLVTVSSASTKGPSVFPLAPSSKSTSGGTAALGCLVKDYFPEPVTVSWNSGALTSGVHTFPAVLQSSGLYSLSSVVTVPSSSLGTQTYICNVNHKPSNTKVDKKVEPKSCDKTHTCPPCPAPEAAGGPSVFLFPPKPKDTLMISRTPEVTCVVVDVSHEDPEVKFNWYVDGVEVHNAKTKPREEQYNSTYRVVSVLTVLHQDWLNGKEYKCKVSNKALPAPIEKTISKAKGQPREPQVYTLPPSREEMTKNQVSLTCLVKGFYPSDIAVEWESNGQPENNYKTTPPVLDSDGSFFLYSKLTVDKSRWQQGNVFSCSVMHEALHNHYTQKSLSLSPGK
light: DIVMTQSPGTLSLSPGERATLSCRSSQSLLNSGNQKNYLTWYQQKPGQAPRLLIYWASTRESGIPDRFSGSGSGTDFTLTISRLEPEDFAVYYCQNNYIYPLTFGQGTKLEIKRTVAAPSVFIFPPSDEQLKSGTASVVCLLNNFYPREAKVQWKVDNALQSGNSQESVTEQDSKDSTYSLSSTLTLSKADYEKHKVYACEVTHQGLSSPVTKSFNRGECTSGGGGSGGGGSGGGGSQVQLVQSGGGVVQPGRSLRLSCKASGYTFTRYTMHWVRQAPGKGLEWIGYINPSRGYTNYNQKFKDRFTISRDNSKNTAFLQMDSLRPEDTGVYFCARYYDDHYSLDYWGQGTPVTVSSGGGGSGGGGSGGGGSGGGGSGGGGSGGGGSDIQMTQSPSSLSASVGDRVTITCSASSSVSYMNWYQQTPGKAPKRWIYDTSKLASGVPSRFSGSGSGTDYTFTISSLQPEDIATYYCQQWSSNPFTFGQGTKLQIT
B12: 32G4-huIgG1-V8×OKT3 (anti-CLDN18.2×CD3) bispecific antibody (bispecific antibody)
heavy: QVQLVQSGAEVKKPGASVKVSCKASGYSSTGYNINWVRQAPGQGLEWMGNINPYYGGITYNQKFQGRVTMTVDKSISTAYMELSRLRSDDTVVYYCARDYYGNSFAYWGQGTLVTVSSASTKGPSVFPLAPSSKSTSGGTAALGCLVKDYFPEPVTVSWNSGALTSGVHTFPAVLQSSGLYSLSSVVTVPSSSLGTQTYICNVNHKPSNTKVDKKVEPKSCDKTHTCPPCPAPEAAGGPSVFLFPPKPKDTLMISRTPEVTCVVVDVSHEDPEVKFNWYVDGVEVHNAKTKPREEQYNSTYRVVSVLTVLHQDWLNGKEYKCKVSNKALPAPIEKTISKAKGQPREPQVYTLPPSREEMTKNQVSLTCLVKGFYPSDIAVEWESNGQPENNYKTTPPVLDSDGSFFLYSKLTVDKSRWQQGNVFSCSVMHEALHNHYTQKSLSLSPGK
light: DIQMTQSPSSLSASVGDRVTITCRSSQSLLNSGNQKNYLTWYQQKPGKAPKLLIFWASTLESGVPSRFSGSGSGTDFTLTISSLQPEDFATYYCQNNYYFPYTFGQGTKLEIKRTVAAPSVFIFPPSDEQLKSGTASVVCLLNNFYPREAKVQWKVDNALQSGNSQESVTEQDSKDSTYSLSSTLTLSKADYEKHKVYACEVTHQGLSSPVTKSFNRGECTSGGGGSGGGGSGGGGSQVQLVQSGGGVVQPGRSLRLSCKASGYTFTRYTMHWVRQAPGKGLEWIGYINPSRGYTNYNQKFKDRFTISRDNSKNTAFLQMDSLRPEDTGVYFCARYYDDHYSLDYWGQGTPVTVSSGGGGSGGGGSGGGGSGGGGSGGGGSGGGGSDIQMTQSPSSLSASVGDRVTITCSASSSVSYMNWYQQTPGKAPKRWIYDTSKLASGVPSRFSGSGSGTDYTFTISSLQPEDIATYYCQQWSSNPFTFGQGTKLQIT

molecular target: T1, human Claudin 18.2 protein (human); assay: FACS cell surface binding analysis
T1 construct: Expressed on transfected cells (CHO-hCLDN18.2, HEK293-hCLDN18.2, 3T3-hCLDN18.2) from pCMV3-hCLDN18.2; also called human CLDN18.2; hCLDN18.2
T1 sequence (chain, as listed by the source limits assumed): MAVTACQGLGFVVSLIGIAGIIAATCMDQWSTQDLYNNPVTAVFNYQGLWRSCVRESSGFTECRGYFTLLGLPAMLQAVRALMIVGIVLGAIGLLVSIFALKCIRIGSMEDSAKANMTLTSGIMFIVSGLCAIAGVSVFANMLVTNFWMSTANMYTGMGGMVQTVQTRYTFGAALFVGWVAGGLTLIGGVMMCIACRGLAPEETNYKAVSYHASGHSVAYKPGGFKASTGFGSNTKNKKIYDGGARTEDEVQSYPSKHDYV

| EC50 [nM] | Binder |
| --- | --- |
| 0.502 | B1 |
| 2.2 | B2 |
| 1.97 | B3 |
| 0.129 | B4 |
| 1.26 | B5 |
| 10.9 | B6 |
| 0.147 | B7 |
| 0.22 | B8 |
| 0.361 | B9 |

molecular target: T1, human Claudin 18.2 protein; assay: FACS on cells expressing CLDN18.2 versus cells expressing CLDN18.1 (reference: binding to CLDN18.1)
Excerpt: FACS cell binding assays. […] Cells were fixed with 1% paraformaldehyde (PFA) prior to analysis on FACSCalibur cytometer (BD biosciences, Franklin Lakes, N.J., U.S.). Controls were cells with secondary antibody only, for which the mean fluorescent intensity (MFI) was set to 5.

| fold stronger binding to CLDN18.2 than to CLDN18.1 [times] | Binder |
| --- | --- |
| ≥ 1000 | B1 |
| ≥ 1000 | B2 |
| ≥ 1000 | B3 |
| ≥ 1000 | B5 |
| ≥ 1000 | B6 |

molecular target: T1, human Claudin 18.2 protein; assay: cell-based or functional assay

| Binder | TDCC activity (T cell dependent cellular cytotoxicity; CellTiter-Glo cell viability, PBMCs as effectors, 48 hours) [pM] |
| --- | --- |
| B10 | 1 |
| B11 | 1 |
| B12 | 1 |
